Data taken from PMC11148769 (Cell Reports Medicine, 2024).

Biological target: T1, BA.2.12.1 S trimer (SARS-CoV-2, Omicron BA.2.12.1, strain)
T1 construct: also called BA.2.12.1 spike
Experiment: cryo-EM structure
Conditions: both partners purified

B1: XBB-4 Fab (Fab, V domains shown)
VH: EVQLVQSGGGLVKPGGSLRLSCAASGFSFTNAWMNWVRQAPGKGLEWVGRIKSKADGGTTDYAAPVKGKFTISRDDSKNTLYLQMNSLKTEDTAIYYCTSDVYDFSTGFGQRDDFDYWGQGTLVTVSS
VL: DIVMTQSPSSLSASVGDRVTITCRASQSISYFLNWYQQKPGKAPKLLISAASSLQSGVPSRFSGSGSGTDFTLTISSLQPEDFATYYCQQSYSSLITFGGGTKVEIK
- stoichiometry N: 3 Fabs per S trimer
